This note sets out measurements from US20230357342A1 (published 2023).

One test concerns the target T1, Fc fused human IL-18Rα (human, UniProt Q13478 19-329).
T1 construct: captured by anti-human IgG on a CM5 chip; also called IL-18Rα monomer; human IL-18 receptor alpha (CD218a); not shown: Fc portion
T1 sequence (looked up): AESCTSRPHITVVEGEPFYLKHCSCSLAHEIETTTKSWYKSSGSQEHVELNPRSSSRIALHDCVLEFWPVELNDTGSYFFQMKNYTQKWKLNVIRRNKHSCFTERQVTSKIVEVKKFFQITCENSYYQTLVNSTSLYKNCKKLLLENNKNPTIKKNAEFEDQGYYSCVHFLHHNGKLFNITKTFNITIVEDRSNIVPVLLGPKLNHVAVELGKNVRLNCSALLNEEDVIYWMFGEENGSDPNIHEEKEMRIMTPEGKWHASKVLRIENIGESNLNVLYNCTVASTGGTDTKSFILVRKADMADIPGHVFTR
Description: SPR, Fc-IL-18Rα captured via anti-human IgG, IL-18 as analyte, 1:1 model. As to the method:
(§1) The interaction of the wild type and of modified IL-18 polypeptides with human IL-18 receptor subunits are measured with Surface Plasmon Resonance (SPR) technology. Anti-human IgG antibodies are bound by amine coupling onto a CM5 chip to capture 6 μg/mL of Fc fused human IL-18Rα, 6 μg/mL of Fc fused human IL-18Rβ, or 2 μg/mL of Fc fused human IL-18BP isoform a (IL-18BPa) for 30 min before capture. In other settings, 6 μg/mL of alpha and beta IL-18 receptors are mixed and pre-incubated for 30 min before capture of the alpha/beta heterodimer IL-18 receptor.
(§2) The kinetic binding of the IL-18 analytes are measured with a Biacore 8K instrument in two fold serial dilutions starting at 1 μM down to 0.98 nM. Regeneration of the surface back to amine coupled anti IgG antibody is done after every concentration of analyte. To measure the protein association to the receptors, the samples are injected with a flow rate of 50 μL/min for 60 s, followed by 300 s buffer only to detect the dissociation. The used running buffer is 1×PBS with 0.05% Tween20. The relative response units (RU, Y-axis) are plotted against time (s, X-axis) and analyzed in a kinetic 1:1 binding model for the monomer receptor binding and for the binding to the IL-18BP. A kinetic heterogenous ligand fit model is applied for the alpha/beta heterodimer binding.
On the technique in general: Surface plasmon resonance follows binding to a sensor surface in real time, without labels.

Test [1] has as its target T2, IL-18 receptor on HEK-Blue IL18R reporter cells (UniProt Q13478 19-541; O95256 20-599, limits assumed).
T2 sequence (looked up) 1: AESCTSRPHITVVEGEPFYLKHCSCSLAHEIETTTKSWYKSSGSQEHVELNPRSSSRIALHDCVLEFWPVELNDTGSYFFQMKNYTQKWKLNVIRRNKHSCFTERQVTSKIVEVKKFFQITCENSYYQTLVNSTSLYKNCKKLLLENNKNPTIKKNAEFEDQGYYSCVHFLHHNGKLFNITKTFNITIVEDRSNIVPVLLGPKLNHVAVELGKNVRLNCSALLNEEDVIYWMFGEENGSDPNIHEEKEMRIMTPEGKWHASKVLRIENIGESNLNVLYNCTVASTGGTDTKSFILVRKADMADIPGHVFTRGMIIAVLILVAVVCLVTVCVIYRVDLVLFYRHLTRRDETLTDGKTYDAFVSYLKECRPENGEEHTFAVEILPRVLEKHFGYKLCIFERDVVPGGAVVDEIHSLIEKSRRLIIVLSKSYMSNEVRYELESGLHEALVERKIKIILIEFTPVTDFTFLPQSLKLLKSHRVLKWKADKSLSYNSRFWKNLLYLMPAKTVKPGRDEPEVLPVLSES
T2 sequence (looked up) 2: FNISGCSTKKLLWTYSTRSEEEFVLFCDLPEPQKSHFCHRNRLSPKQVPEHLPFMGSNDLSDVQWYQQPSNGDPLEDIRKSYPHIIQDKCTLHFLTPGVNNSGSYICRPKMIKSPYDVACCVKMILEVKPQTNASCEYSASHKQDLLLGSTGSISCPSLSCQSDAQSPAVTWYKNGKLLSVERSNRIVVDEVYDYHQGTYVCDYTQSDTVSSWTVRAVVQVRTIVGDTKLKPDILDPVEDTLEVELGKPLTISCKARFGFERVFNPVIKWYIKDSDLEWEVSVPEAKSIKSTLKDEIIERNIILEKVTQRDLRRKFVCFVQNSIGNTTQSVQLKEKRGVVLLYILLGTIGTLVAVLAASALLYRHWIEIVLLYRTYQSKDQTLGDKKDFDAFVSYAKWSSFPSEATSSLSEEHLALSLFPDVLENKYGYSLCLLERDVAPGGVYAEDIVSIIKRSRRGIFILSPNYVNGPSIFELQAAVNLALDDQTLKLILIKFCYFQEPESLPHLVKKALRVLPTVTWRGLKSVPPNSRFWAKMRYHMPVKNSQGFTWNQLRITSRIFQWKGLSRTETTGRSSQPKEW
The experiment in a line: cell-based or functional assay.

For test [2], the target named is T3, IL-18Rα/β heterodimer (Fc fused human IL-18Rα mixed with Fc fused human IL-18Rβ) (human, UniProt Q13478 19-329; O95256 20-356).
T3 construct: 6 µg/mL of alpha and beta receptors were mixed and pre-incubated 30 min before capture on anti-human IgG; also called alpha/beta heterodimer IL-18 receptor; heterodimeric human IL-18 receptor alpha (CD218a) and IL-18R accessory protein (IL-18RAP/CDw218b); not shown: Fc portion
T3 sequence (looked up) 1: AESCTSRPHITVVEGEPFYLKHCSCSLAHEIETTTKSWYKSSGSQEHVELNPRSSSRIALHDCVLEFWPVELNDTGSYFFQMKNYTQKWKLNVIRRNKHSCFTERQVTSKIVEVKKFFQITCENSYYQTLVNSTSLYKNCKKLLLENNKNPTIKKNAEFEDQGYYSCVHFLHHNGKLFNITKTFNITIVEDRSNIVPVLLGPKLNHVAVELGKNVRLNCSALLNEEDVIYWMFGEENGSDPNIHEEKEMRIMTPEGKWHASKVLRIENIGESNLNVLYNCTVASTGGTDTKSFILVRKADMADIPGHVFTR
T3 sequence (looked up) 2: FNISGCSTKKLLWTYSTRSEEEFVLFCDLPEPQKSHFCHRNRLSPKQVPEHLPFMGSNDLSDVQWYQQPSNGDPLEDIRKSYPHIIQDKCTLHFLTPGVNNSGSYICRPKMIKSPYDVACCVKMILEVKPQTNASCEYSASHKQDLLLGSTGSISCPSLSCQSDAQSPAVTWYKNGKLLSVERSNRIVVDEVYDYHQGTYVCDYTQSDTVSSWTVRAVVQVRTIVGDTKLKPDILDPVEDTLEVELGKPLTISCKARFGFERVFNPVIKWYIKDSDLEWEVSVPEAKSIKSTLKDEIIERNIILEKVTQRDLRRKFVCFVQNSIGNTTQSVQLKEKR
Description: SPR, Fc-IL-18Rα and Fc-IL-18Rβ pre-mixed and captured, IL-18 as analyte, heterogeneous ligand model. Here is the method:
as §1, §2

B1: modified IL-18 polypeptide SEQ ID NO: 57 (E6K, C38S, K53A) (ligand)
chain: YFGKLKSKLSVIRNLNDQVLFIDQGNRPLFEDMTDSDSRDNAPRTIFIISMYADSQPRGMAVTISVKCEKISTLSCENKIISFKEMNPPDNIKDTKSDIIFFQRSVPGHDNKMQFESSSYEGYFLACEKERDLFKLILKKEDELGDRSIMFTVQNED
By Kd is commonly meant the constant that tells how readily two partners part at equilibrium. Read a low Kd as higher affinity. As usually defined, the koff is the rate constant with which the complex falls apart. Low values mean slow dissociation, high ones fast dissociation. As usually defined, the kon is a measure of how fast the partners come together. Higher therefore signals faster complex formation. In the case of B1, in the test with Fc fused human IL-18Rα, the Kd was 72.4 nM, the koff was found to be 0.0151 s⁻¹ and the kon was 208000 M⁻¹ s⁻¹. In addition, the “EC50, HEK-Blue IL18R reporter (SEAP)” value in test [1] was 0.53 nM. In test [2], binding was characterised by a dissociation constant (Kd) of 2.92 nM, the koff was 0.0008 s⁻¹ and the association rate constant (kon) amounted to 279000 M⁻¹ s⁻¹.

B2: modified IL-18 polypeptide SEQ ID NO: 244 (N-terminal G, E6K, V11I, C38A, M51G, K53A, T63A, C76A, C127A) (ligand)
chain: GYFGKLKSKLSIIRNLNDQVLFIDQGNRPLFEDMTDSDARDNAPRTIFIISGYADSQPRGMAVAISVKCEKISTLSAENKIISFKEMNPPDNIKDTKSDIIFFQRSVPGHDNKMQFESSSYEGYFLAAEKERDLFKLILKKEDELGDRSIMFTVQNED
B2: the “EC50, HEK-Blue IL18R reporter (SEAP)” value in test [1] came to 14 nM.
